What was measured:
[1] = molecular target: FLAG-tagged BRD4-L purified from insect Sf9 cells (human, UniProt O60885-1 1-1362); assay: pull-down
[2] = molecular target: FLAG-tagged BRD4-S(a) purified from insect Sf9 cells (human, UniProt O60885-2 1-722); assay: pull-down

B1: FLAG-tagged EN2 purified from bacteria (natural protein, UniProt P19622 1-333, looked up)
chain: MEENDPKPGEAAAAVEGQRQPESSPGGGSGGGGGSSPGEADTGRRRALMLPAVLQAPGNHQHPHRITNFFIDNILRPEFGRRKDAGTCCAGAGGGRGGGAGGEGGASGAEGGGGAGGSEQLLGSGSREPRQNPPCAPGAGGPLPAAGSDSPGDGEGGSKTLSLHGGAKKGGDPGGPLDGSLKARGLGGGDLSVSSDSDSSQAGANLGAQPMLWPAWVYCTRYSDRPSSGPRSRKPKKKNPNKEDKRPRTAFTAEQLQRLKAEFQTNRYLTEQRRQSLAQELSLNESQIKIWFQNKRAKIKKATGNKNTLAVHLMAQGLYNHSTTAKEGKSDSE
B1: binds [1]; binds [2].

B2: FLAG-tagged EN1 purified from bacteria (natural protein, UniProt Q05925 1-392, looked up)
chain: MEEQQPEPKSQRDSALGAAAAATPGGLSLSLSPGASGSSGSGSDGDSVPVSPQPAPPSPPAAPCLPPLAHHPHLPPHPPPPPPQHLAAPAHQPQPAAQLHRTTNFFIDNILRPDFGCKKEQPPPQLLVAAAARGGAGGGGRVERDRGQTAAGRDPVHPLGTRAPGAASLLCAPDANCGPPDGSQPAAAGAGASKAGNPAAAAAAAAAAVAAAAAAAAAKPSDTGGGGSGGGAGSPGAQGTKYPEHGNPAILLMGSANGGPVVKTDSQQPLVWPAWVYCTRYSDRPSSGPRTRKLKKKKNEKEDKRPRTAFTAEQLQRLKAEFQANRYITEQRRQTLAQELSLNESQIKIWFQNKRAKIKKATGIKNGLALHLMAQGLYNHSTTTVQDKDESE
B2: binds [1]; binds [2].

— article PMC7362310 (Molecular cell, 2020)
